Experiment [1] deals with HLA-A*01:01. Briefly: IEDB peptide-MHC binding, purified MHC/direct/fluorescence; filed as Kd, often an IC50 or EC50 that approximates it; ≥ and ≤ were set here for values at or beyond the usual limits of such assays.
Experiment [2] deals with HLA-A*02:01. Described as above.
The target of experiment [3] is HLA-A*03:01. The experiment is described as above.
The target of experiment [4] is HLA-A*11:01. The experiment is described as above.
Experiment [5] has as its target HLA-A*26:01. The experiment is described as above.
The target of experiment [6] is HLA-A*31:01. Described as above.
Experiment [7] addresses HLA-A*69:01. The experiment is described as above.
The target in experiment [8] is HLA-B*07:02. The experiment is described as above.
Experiment [9] concerns the target HLA-B*08:01. Described as above.
Experiment [10] addresses HLA-B*15:01. The description is as above.
The target in experiment [11] is HLA-B*27:05. The description is as above.
In experiment [12] the target is HLA-B*35:01. The experiment is described as above. The following applies: source organism: Corynebacterium glutamicum.
In experiment [13] the target is HLA-B*40:01. The experiment is described as above.
The target in experiment [14] is HLA-B*58:01. The description is as above.
Experiment [15] concerns the target HLA-B*15:02. Briefly: IEDB peptide-MHC binding, purified MHC/competitive/fluorescence; filed as Kd, often an IC50 or EC50 that approximates it; ≥ and ≤ were set here for values at or beyond the usual limits of such assays.
Experiment [16] deals with HLA-A*24:03. Briefly: IEDB peptide-MHC binding, purified MHC/direct/fluorescence; filed as Kd, often an IC50 or EC50 that approximates it; ≥ and ≤ were set here for values at or beyond the usual limits of such assays.
The target in experiment [17] is HLA-B*44:02. Described as above. Particulars: source organism: Yersinia pestis.
The target in experiment [18] is HLA-A*02:50. Briefly: IEDB peptide-MHC binding, purified MHC/competitive/fluorescence; filed as Kd, often an IC50 or EC50 that approximates it; ≥ and ≤ were set here for values at or beyond the usual limits of such assays.
Experiment [19] addresses HLA-A*26:02. As to the kind of experiment: IEDB peptide-MHC binding, purified MHC/direct/fluorescence; filed as Kd, often an IC50 or EC50 that approximates it; ≥ and ≤ were set here for values at or beyond the usual limits of such assays. The following applies: source organism: Mycobacterium tuberculosis str. Haarlem.
Experiment [20] addresses HLA-A*68:02. Described as above. The following applies: source organism: Mycobacterium tuberculosis.
Experiment [21] concerns the target HLA-B*08:02. The description is as above. Particulars: source organism: Mycobacterium tuberculosis str. Haarlem.
The target in experiment [22] is HLA-B*08:03. The description is as above. The following applies: source organism: Mycobacterium tuberculosis str. Haarlem.
Experiment [23] deals with HLA-B*15:17. The description is as above. Particulars: source organism: Mycobacterium tuberculosis.
For experiment [24], the target named is HLA-B*46:01. The experiment is described as above. Particulars: source organism: Mycobacterium tuberculosis.
The target in experiment [25] is HLA-B*48:01. The experiment is described as above. Particulars: source organism: Mycobacterium tuberculosis.
Experiment [26] has as its target HLA-B*57:01. The experiment is described as above. Particulars: source organism: Mycobacterium tuberculosis.
For experiment [27], the target named is HLA-A*02:01. Briefly: IEDB peptide-MHC binding, purified MHC/competitive/fluorescence; filed as Kd, often an IC50 or EC50 that approximates it; ≥ and ≤ were set here for values at or beyond the usual limits of such assays. Particulars: source organism: Mycobacterium tuberculosis variant bovis BCG str. Pasteur 1173P2.
Experiment [28] deals with HLA-C*04:01. Briefly: IEDB peptide-MHC binding, purified MHC/direct/fluorescence; filed as Kd, often an IC50 or EC50 that approximates it; ≥ and ≤ were set here for values at or beyond the usual limits of such assays.
Experiment [29] addresses HLA-A*23:01. As to the kind of experiment: IEDB peptide-MHC binding, purified MHC/competitive/fluorescence; filed as Kd, often an IC50 or EC50 that approximates it; ≥ and ≤ were set here for values at or beyond the usual limits of such assays. Particulars: source organism: Cryptosporidium parvum Iowa II.
The target in experiment [30] is HLA-A*02:11. Briefly: IEDB peptide-MHC binding, purified MHC/direct/fluorescence; filed as Kd, often an IC50 or EC50 that approximates it; ≥ and ≤ were set here for values at or beyond the usual limits of such assays. Particulars: source organism: Burkholderia mallei ATCC 23344.
Setting [31] is: source organism: Corynebacterium glutamicum.
[32] abbreviates: source organism: Corynebacterium efficiens.
Where [33] appears, read: source organism: Yersinia pestis.
Setting [34] is: source organism: Haemophilus influenzae.
Setting [35] is: source organism: Mycobacterium tuberculosis.
[36] abbreviates: source organism: Burkholderia mallei.

From the Immune Epitope Database (IEDB) come the findings set out here.

Consider VQLQEYDTY, for which the Kd in experiment [1] (setting [31]) is not below 5 µM; in experiment [2] (setting [32]) it was not below 20 µM; in experiment [3] (setting [32]), not below 20 µM; in [4] (setting [32]), not below 20 µM; in experiment [5] (setting [32]), not below 20 µM; in experiment [6] (setting [32]), not below 20 µM. The Kd in experiment [7] (setting [32]) is not below 20 µM; in experiment [8] (setting [32]) it was not below 20 µM; in experiment [9] (setting [32]), not below 20 µM; in [10] (setting [31]), 0.199 µM; in [11] (setting [32]), not below 20 µM; in experiment [12], 0.383 µM. Besides, the dissociation constant (Kd) in experiment [13] (setting [32]), in experiment [14] (setting [32]) and in [15] (setting [32]) was not below 20 µM throughout.

As for LLIDDSFSS, the Kd in experiment [1] (setting [33]) was not below 20 µM; in experiment [2] (setting [33]), 0.65 µM; in experiment [3] (setting [33]) it was not below 20 µM; in experiment [4] (setting [33]) it was not below 20 µM; in [16] (setting [33]) it was not below 20 µM; in [5] (setting [33]) it was not below 20 µM. The equilibrium dissociation constant (Kd) in experiment [6] (setting [33]) was not below 20 µM; in experiment [7] (setting [33]), not below 20 µM; in [8] (setting [33]), not below 20 µM; in experiment [9] (setting [33]) it was not below 20 µM; in [10] (setting [33]), 1.89 µM; in [11] (setting [33]) it was not below 20 µM. For the same sequence, the Kd in experiment [13] (setting [33]) is not below 20 µM; in [17], not below 20 µM; in [14] (setting [33]), not below 20 µM; in [18] (source organism: Yersinia pestis Nepal516), 0.0025 µM.

In the case of LIFPAFFLC, the Kd in experiment [1] (setting [34]) is 5.24 µM; in [2] (setting [34]), 5.1 µM; in experiment [3] (setting [34]), not below 20 µM; in experiment [4] (setting [34]), not below 20 µM; in experiment [16] (setting [34]) it was not below 20 µM; in experiment [5] (setting [34]), not below 20 µM. For the same sequence, the Kd in experiment [6] (setting [34]), in [7] (setting [34]), in [8] (setting [34]), in experiment [9] (setting [34]), in experiment [10] (setting [34]) and in experiment [11] (setting [34]) was not below 20 µM each time. Besides, the values for the dissociation constant Kd in [13] (setting [34]), in experiment [14] (setting [34]) and in experiment [18] (source organism: Haemophilus influenzae PittAA) were not below 20 µM, not below 10 µM and 0.012 µM, respectively.

Turning to KLVGIELPK, the dissociation constant Kd in experiment [1] (setting [35]) is not below 20 µM; in experiment [4] (setting [35]), 0.0733 µM; in [19], not below 20 µM; in experiment [6] (setting [35]), 6.82 µM; in experiment [20], not below 20 µM; in experiment [7] (setting [35]), not below 20 µM. Also, the Kd in experiment [8] (setting [35]), in [9] (source organism: Mycobacterium tuberculosis str. Haarlem), in experiment [21], in experiment [22], in [10] (setting [35]) and in experiment [23] was not below 20 µM throughout. The dissociation constant Kd in [11] (setting [35]), in [13] (setting [35]), in experiment [24], in experiment [25], in experiment [26] and in experiment [14] (setting [35]) was not below 20 µM each time. Also, the dissociation constant Kd in experiment [27] was not below 20 µM.

TFMGMNVQF: the values for the equilibrium dissociation constant (Kd) in experiment [28] (source organism: Cryptosporidium parvum Iowa II) and in [29] were not below 20 µM and 0.0012 µM, respectively.

For the sequence SLYDIITVM, the equilibrium dissociation constant (Kd) in experiment [15] (source organism: Listeria monocytogenes) was not below 20 µM.

Turning to MQQAYQCIV, the equilibrium dissociation constant (Kd) in experiment [2] (setting [36]) was found to be 0.0865 µM; in experiment [30] it was 0.028 µM; in experiment [7] (setting [36]), 9.04 µM; in experiment [18] (source organism: Burkholderia mallei NCTC 10229) it was 0.0116 µM.

In the case of MYTRNLLWL, the Kd is 0.0018 µM in experiment [16] (source organism: Escherichia coli) and not below 20 µM in [28] (source organism: Escherichia coli HS).

For orientation: Kd means the equilibrium constant for the complex coming apart. A low value points to tighter binding.
